US20220243213A1, “ANTI-CRISPR INHIBITORS” (THE REGENTS OF THE UNIVERSITY OF CALIFORNIA, published 2022)

Legend:
[1] = tested on: AcrIIA1 (phage A006) (Listeria phage A006); assay: MST; conditions: 34 nM stated in Example 5 (p151)
[2] = tested on: AcrIIA1 NTD (Listeria phage A006); assay: MST
[3] = molecular target: Listeria monocytogenes Cas9 (LmoCas9) (Listeria monocytogenes); assay: cell-based or functional assay
Aca1 [4] = molecular target: T1, Aca1 (Pseudomonas aeruginosa phage JBD30); assay: EMSA; no shift up to 250 nM; conditions: tags: p15TV-L expression, Ni-NTA purified; chain copies: 2 (inferred; HTH proteins stated generally dimeric)
T1 chain: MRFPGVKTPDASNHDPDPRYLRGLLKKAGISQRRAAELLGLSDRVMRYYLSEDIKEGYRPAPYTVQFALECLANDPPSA
Experimental: (§1) Representative non-denaturing polyacrylamide gels stained with SYBR gold are shown. Purified Aca1 was added to the DNA at concentrations of 10 nM, 50 nM, 100 nM and 250 nM. […] FIG. 3F: The anti-CRISPR promoter region from phage JBD30 either wild-type (WT), or bearing IR1 and/or IR2 mutations was cloned upstream of a promoterless lacZ gene. β-galactosidase activity was measured in PA14 (−Aca1) or in a JBD30 lysogen (+Aca1). The mean β-galactosidase activity relative to the wild-type promoter is shown, with error bars representing standard error of the mean (n≥3). FIG. 3G: Ten-fold dilutions of lysates of anti-CRISPR phage JBD30 carrying the indicated inverted repeat mutations were applied to lawns of CRISPR-Cas intact PA14 or CRISPR deleted PA14 (PA14ΔCRISPR). Representative images from three biological replicates are shown.
Aca1 acts on the acr promoter. Aca1 proteins are bioinformatically predicted to contain a helix-turn-helix (HTH) DNA-binding motif (FIG. 8A). HTH-containing proteins are generally dimeric and bind to inverted repeat sequences. We identified two such sites with very similar sequences which we refer to as IR1 and IR2, flanking the −35 region of the acrIF1 promoter (FIG. 3B). […]

Aca2 ZF40 = molecular target: T2, Aca2 ZF40 (Pectobacterium phage ZF40, UniProt H9C180 H9C180:1-116); assay: cell_activity; lacZ reporter in E. coli; text listing of SEQ 6 differs from the Table 8 sequence for this accession; conditions: chain copies: 2
T2 sequence: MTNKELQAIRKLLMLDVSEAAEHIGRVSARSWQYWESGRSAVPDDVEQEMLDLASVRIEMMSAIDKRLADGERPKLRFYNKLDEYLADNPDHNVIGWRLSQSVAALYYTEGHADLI
From the text: By aligning the intergenic regions found immediately upstream of anti-CRISPR genes associated with aca2, we detected a conserved inverted repeat sequence that could act as a binding site for Aca2 proteins (FIG. 11B). […] To investigate the functions of Aca2 and Aca3, the acrlaca regions from Pectobacterium phage ZF40 and from N. meningitidis strain 2842STDY5881035 were investigated as representatives of the Aca2 and Aca3 families, respectively. The putative promoter regions of the anti-CRISPR genes in these two operons (FIGS. 11B and 11D) were cloned upstream of a promoterless lacZ reporter gene carried on a plasmid. When assayed in E. coli, both regions mediated robust transcription of the reporter as detected by measuring β-galactosidase activity in cell extracts (FIG. 7).
β-galactosidase reporter assays. β-galactosidase reporter plasmids were transformed into DH5a and PA14. Overnight cultures of transformed cells were subcultured 1:100 and grown for ˜3 hours with shaking (OD₆₀₀=0.4-0.7). β-galactosidase activity was then quantified using a method derived from Zhang and Bremer, 1995. […] The reaction was stopped with the addition of 700 μL of 1 M Na₂CO₃, A420 and A550 were measured, and Miller Units were calculated.

Aca1 (in cell) = molecular target: T3, Aca1 (in cell) (Pseudomonas aeruginosa phage JBD30); assay: cell_activity; lacZ reporter in P. aeruginosa JBD30 lysogen
T3 chain: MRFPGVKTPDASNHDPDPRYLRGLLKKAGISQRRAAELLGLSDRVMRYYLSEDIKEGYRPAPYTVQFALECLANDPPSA

Aca1 R44A = molecular target: T4, Aca1 R44A (Pseudomonas aeruginosa phage JBD30, R44A); assay: EMSA; binding completely abolished; 10-500 nM; conditions: tags: p15TV-L expression, Ni-NTA purified; chain copies: 2 (inferred)
T4 chain: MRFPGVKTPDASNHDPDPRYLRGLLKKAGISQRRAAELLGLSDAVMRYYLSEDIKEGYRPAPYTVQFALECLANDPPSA
Experimental: FIG. 4A: Representative electrophoretic mobility shift assays with indicated Aca1 mutants using the 110 bp upstream region from phage JBD30 as a substrate. Purified protein was added at concentrations of 10 nM, 50 nM, 100 nM, 250 nM and 500 nM. […] Non-denaturing acrylamide gels stained with SYBR gold are shown. FIG. 4B: The anti-CRISPR promoter region from phage JBD30 was cloned upstream of a promoterless lacZ gene. β-galactosidase activity was measured in a wild-type JBD30 lysogen (WT Aca1), JBD30 Aca1 mutant lysogens as indicated, and wild-type PA14 with no prophage (−). The mean from three independent experiments relative to the wild-type Aca1 JBD30 lysogen is shown, with error bars representing the standard error of the mean. FIG. 4C: Lysates of phage JBD30 (WT or Aca1R44A mutant) were spotted in 10-fold serial dilutions on bacterial lawns of wild-type P. aeruginosa PA14, a CRISPR deletion version of PA14 (PA14ΔCRISPR), or on the deletion strain bearing a plasmid that expresses Aca1. These phages are targeted by the CRISPR-Cas system in the absence of anti-CRISPR activity. Representative images from three biological replicates are shown. […] FIG. 4E: The transcript levels of the acrIF1 and aca1 genes in phages bearing anti-CRISPR promoter operator mutants and aca mutants were determined by RT-qPCR. […]

Aca1 [5] = molecular target: T1, Aca1; assay: EMSA; 10 mM HEPES pH 7.5, 1 mM MgCl2, 20 mM KCl, 1 mM TCEP, 6% glycerol, on ice; second shifted band at higher concentrations; conditions: tags: p15TV-L expression, Ni-NTA purified; chain copies: 2 (inferred; HTH proteins stated generally dimeric)
From the text: Aca1 acts on the acr promoter. Aca1 proteins are bioinformatically predicted to contain a helix-turn-helix (HTH) DNA-binding motif (FIG. 8A). HTH-containing proteins are generally dimeric and bind to inverted repeat sequences. We identified two such sites with very similar sequences which we refer to as IR1 and IR2, flanking the −35 region of the acrIF1 promoter (FIG. 3B). To determine whether Aca1 could bind to the anti-CRISPR promoter region, purified Aca1 was mixed with a 110 bp dsDNA fragment containing the acr promoter and an electrophoretic mobility shift assay (EMSA) was performed. […] At higher Aca1 concentrations, a second shifted band was observed, consistent with the presence of two Aca1 binding sites within this fragment.
Electrophoretic mobility shift assay. Varying concentrations of purified Aca1 or Aca1 mutants were mixed with 20 ng of target DNA (gel purified PCR product or annealed oligo) in binding buffer (10 mM HEPES pH 7.5, 1 mM MgCl₂, 20 mM KCl, 1 mM TCEP, 6% v/v glycerol) and incubated on ice for 20 minutes. The DNA-protein complexes were separated by gel electrophoresis at 100 V on a 6% native 0.5× TBE polyacrylamide gel. Gels were stained at room temperature with Sybr gold (Invitrogen) and visualized according to the supplier's instructions. Bands were quantified using Image Lab 6.0 software (BioRad). […]

Aca1 [6] = molecular target: T1, Aca1; assay: EMSA; two shifted bands; 10-250 nM Aca1; conditions: tags: p15TV-L expression, Ni-NTA purified; chain copies: 2 (inferred; HTH proteins stated generally dimeric)
Experimental: as §1, with “FIG. 3E: Electrophoretic mobility shift assays (EMSAs) were performed utilizing a fragment of dsDNA with the sequence shown, which encompasses the acr promoter region. The IR1 and IR2 mutants contained the triple and quadruple base substitutions indicated under the DNA sequence. Representative non-denaturing” for “Representative non-denaturing”
Aca1 acts on the acr promoter. Aca1 proteins are bioinformatically predicted to contain a helix-turn-helix (HTH) DNA-binding motif (FIG. 8A). HTH-containing proteins are generally dimeric and bind to inverted repeat sequences. […]

Question: With “phage A006 anti-CRISPR promoter palindrome” as the molecule, how does the Kd [1] read?
Answer: 26 nM

Question: And the Kd [2]?
Answer: 28 nM

Question: Which Nanoluciferase (NLuc) expression from the anti-CRISPR locus promoter, fold change in RLU, ΦA006acr::nluc lysogen [3] does the source give for “AcrIIA1 (full-length, from Listeria phage ΦA006)” here?
Answer: 5 fold

B1: IR1+IR2 mutant oligo (dsDNA)
DNA 1: ACAAGCGTCGTACTGTGCCTATTGCGAGCTAGTCCCAATGTGCCTAATCTAACG
DNA 2: CGTTAGATTAGGCACATTGGGACTAGCTCGCAATAGGCACAGTACGACGCTTGT
Question: Does B1 bind (Aca1 [4])?
Answer: no binding

B2: ZF40 acrIF8 promoter region (dsDNA)
DNA 1: AGCCTCACCTCCGGCGTTGCCGTGGCGCTGTGTGATTTACAGGAAATAAAAAGGCCACGAATGCGGCCTTAGCGATTAAAAAATATGAAATGCCTTGCTTGTTCGCGATTGCGAACATATAATTTATTCATCGGTTCGAG
DNA 2: CTCGAACCGATGAATAAATTATATGTTCGCAATCGCGAACAAGCAAGGCATTTCATATTTTTTAATCGCTAAGGCCGCATTCGTGGCCTTTTTATTTCCTGTAAATCACACAGCGCCACGGCAACGCCGGAGGTGAGGCT
Question: For B2, which activity (Aca2 ZF40) is on record?
Answer: 100 fold repression

B3: JBD30 acrIF1 promoter 110 bp upstream region (dsDNA)
DNA 1: TGGCCACTTTCGGACAAGCGGCACACTGTGCCTATTGCGAATTAGGCACAATGTGCCTAATCTAACGTCATGCCAGCCACAACGGCGAGGCGCCAACAAGGATTCAAACC
DNA 2: GGTTTGAATCCTTGTTGGCGCCTCGCCGTTGTGGCTGGCATGACGTTAGATTAGGCACATTGTGCCTAATTCGCAATAGGCACAGTGTGCCGCTTGTCCGAAAGTGGCCA
Question: With B3 as the molecule, how does the activity (Aca1 (in cell)) read?
Answer: 5 fold repression

Question: Does B3 bind (Aca1 R44A)?
Answer: no binding

Question: And the Kd (Aca1 [5])?
Answer: ~50 nM

B4: acrIF1 promoter IR1-IR2 oligo WT (dsDNA)
DNA 1: ACAAGCGGCACACTGTGCCTATTGCGAATTAGGCACAATGTGCCTAATCTAACG
DNA 2: CGTTAGATTAGGCACATTGTGCCTAATTCGCAATAGGCACAGTGTGCCGCTTGT
Question: Does B4 bind (Aca1 [6])?
Answer: binds
